The record followed here is patent US20110217237A1 (AbbVie / Abbott, published 2011).

Experiment [1] deals with T1, human DLL4 extracellular domain (human, UniProt Q9NR61 27-529).
T1 construct: purified recombinant ECD; biotin-labelled or 6xHis-tagged depending on the assay; also called huDLL4 ECD; hu DLL4 ECD
Kind of experiment: SPR (Biacore). As to the method:
(§1) The BIACORE® surface plasmon resonance assay (Biacore, Inc., Piscataway, N.J., US) determines the affinity of antibodies with kinetic measurements of on-rate and off-rate constants. Binding of DLL4 antibodies to a purified recombinant DLL4 extracellular domain (ECD) was determined by surface plasmon resonance-based measurements with a Biacore® instrument (either a Biacore 2000, Biacore 3000, or Biacore T100; GE Healthcare, Piscataway, N.J., US) using running buffer HBS-EPB (10 mM HEPES [pH 7.4], 150 mM NaCl, 3 mM EDTA, 0.1 mg/ml BSA and 0.005% surfactant P20) at 25° C. For example, approximately 9000 RU of goat anti-human Fc specific polyclonal antibody (Thermo Fisher Scientific Inc., Rockford, Ill., US) diluted in 10 mM sodium acetate (pH 4.5) is directly immobilized across a CMS research grade biosensor chip using a standard amine coupling kit according to manufacturer's instructions and procedures at 25 μg/ml. Unreacted moieties on the biosensor surface were blocked with ethanolamine. For kinetic analysis, rate equations derived from the 1:1 Langmuir binding model were fitted simultaneously to multiple antigen injections (using global fit analysis) with the use of Scrubber 2 (BioLogic Software), Biacore Biaevaluation 4.0.1 software or Biacore T100 Evaluation software. Purified antibodies were diluted in running buffer for capture across goat anti-human Fc reaction surfaces. Antibodies to be captured as a ligand (1 μg/ml) were injected over reaction matrices at a flow rate of 10 μl/min. During the assay, all measurements were referenced against the capture surface alone (i.e., with no captured anti-DLL4 antibody). […] The equilibrium dissociation constant KD (M) of the reaction between antibodies and the target antigen was then calculated from the kinetic rate constants by the following formula: KD=Koff/Kₒₙ. Binding was recorded as a function of time and kinetic rate constants were calculated.

Experiment [2] concerns the target T2, cynomolgus monkey DLL4 extracellular domain (cynomolgus monkey).
T2 construct: extracellular domain; also called cynoDLL4 ECD; Cyno DLL4
Kind of experiment: SPR (Biacore). On the procedure: as §1
(In general: Surface plasmon resonance follows binding to a sensor surface in real time, without labels.)

Experiment [3] addresses T3, mouse DLL4 extracellular domain (mouse, UniProt Q9JI71 27-532).
T3 construct: extracellular domain; also called muDLL4 ECD; murine DLL4
The experiment is described as follows: SPR (Biacore). As to the method:
as §1

Experiment [4] addresses T4, rat DLL4 extracellular domain (rat, UniProt D3ZHH1 28-530).
T4 construct: extracellular domain; also called ratDLL4 ECD
Kind of experiment: SPR (Biacore). On the procedure: as §1

In experiment [5] the target is T5, human DLL4, full length, on cells (human, UniProt Q9NR61 27-685). The experiment is described as follows: cell-based or functional assay.
Experiment [6] deals with T6, mouse DLL4 on cells (mouse, UniProt Q9JI71 27-686). Kind of experiment: cell-based or functional assay.
Experiment [7] addresses T5, human DLL4, full length, on cells. The experiment is described as follows: FACS, direct binding to DLL4 cells. As to the method:
(§2) Stable cell lines overexpressing cell-surface DLL4 were harvested from tissue culture flasks, washed four times and resuspended in phosphate buffered saline (PBS) containing 1% bovine serum albumin and 1 mM CaCl₂ (FACS buffer). 1.5×10⁵ cells were incubated with antibodies at various concentrations in FACS buffer for 60 minutes on ice. […] Following an incubation on ice (4° C., 60 minutes), cells were washed three times and resuspended in FACS buffer. Fluorescence was measured using a Becton Dickinson FACSCalibur-HTS (Becton Dickinson, San Jose, Calif., US). Data were analyzed using Graphpad Prism software and EC₅₀ values were reported as the concentration of antibody to achieve 50% of maximal DLL4 antibodies binding to DLL4 expressing cells.
(§3) The hu1A11.1 affinity matured clones (Table 22) were expressed, purified, and further characterized in vitro. Their activities of binding to cell-bound DLL4 and inhibiting cell-bound DLL4-induced Notch activation were further examined using methods described in Examples 1.3 and 1.6, and are summarized in Table 26 (below).
(In general: A flow cytometer gives signals particle by particle.)

Experiment [8] has as its target T6, mouse DLL4 on cells. Kind of experiment: FACS, direct binding to DLL4 cells. As to the method:
as §2, §3

T1 sequence (Q9NR61 27-529 limits assumed): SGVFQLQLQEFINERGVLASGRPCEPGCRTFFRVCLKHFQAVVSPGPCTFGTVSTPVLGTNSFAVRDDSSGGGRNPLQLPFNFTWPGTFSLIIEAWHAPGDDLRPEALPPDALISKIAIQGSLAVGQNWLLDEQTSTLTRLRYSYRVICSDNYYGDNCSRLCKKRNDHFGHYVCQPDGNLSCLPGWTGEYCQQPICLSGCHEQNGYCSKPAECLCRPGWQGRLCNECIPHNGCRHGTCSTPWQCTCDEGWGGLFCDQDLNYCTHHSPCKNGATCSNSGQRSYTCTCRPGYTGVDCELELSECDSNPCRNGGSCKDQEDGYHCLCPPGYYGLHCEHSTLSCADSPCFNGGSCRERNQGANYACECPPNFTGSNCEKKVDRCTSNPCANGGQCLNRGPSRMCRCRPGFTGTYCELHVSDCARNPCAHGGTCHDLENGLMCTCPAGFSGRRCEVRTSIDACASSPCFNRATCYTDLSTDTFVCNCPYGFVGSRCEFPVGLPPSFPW
T3 sequence (Q9JI71 27-532): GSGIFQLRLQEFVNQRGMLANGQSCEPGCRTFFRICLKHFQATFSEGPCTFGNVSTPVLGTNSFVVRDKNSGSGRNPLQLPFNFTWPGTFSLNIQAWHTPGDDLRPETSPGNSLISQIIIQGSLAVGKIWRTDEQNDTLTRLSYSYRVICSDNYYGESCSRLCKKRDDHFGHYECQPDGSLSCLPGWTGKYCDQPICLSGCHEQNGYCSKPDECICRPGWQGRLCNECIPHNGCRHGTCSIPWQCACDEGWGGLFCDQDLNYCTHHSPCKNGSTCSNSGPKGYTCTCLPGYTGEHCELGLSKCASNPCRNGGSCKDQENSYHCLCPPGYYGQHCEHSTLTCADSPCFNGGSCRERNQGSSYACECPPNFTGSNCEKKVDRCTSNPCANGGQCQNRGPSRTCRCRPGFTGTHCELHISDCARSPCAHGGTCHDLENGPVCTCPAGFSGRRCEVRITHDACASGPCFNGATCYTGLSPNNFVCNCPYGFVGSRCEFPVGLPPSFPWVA
T6 sequence (Q9JI71 27-686): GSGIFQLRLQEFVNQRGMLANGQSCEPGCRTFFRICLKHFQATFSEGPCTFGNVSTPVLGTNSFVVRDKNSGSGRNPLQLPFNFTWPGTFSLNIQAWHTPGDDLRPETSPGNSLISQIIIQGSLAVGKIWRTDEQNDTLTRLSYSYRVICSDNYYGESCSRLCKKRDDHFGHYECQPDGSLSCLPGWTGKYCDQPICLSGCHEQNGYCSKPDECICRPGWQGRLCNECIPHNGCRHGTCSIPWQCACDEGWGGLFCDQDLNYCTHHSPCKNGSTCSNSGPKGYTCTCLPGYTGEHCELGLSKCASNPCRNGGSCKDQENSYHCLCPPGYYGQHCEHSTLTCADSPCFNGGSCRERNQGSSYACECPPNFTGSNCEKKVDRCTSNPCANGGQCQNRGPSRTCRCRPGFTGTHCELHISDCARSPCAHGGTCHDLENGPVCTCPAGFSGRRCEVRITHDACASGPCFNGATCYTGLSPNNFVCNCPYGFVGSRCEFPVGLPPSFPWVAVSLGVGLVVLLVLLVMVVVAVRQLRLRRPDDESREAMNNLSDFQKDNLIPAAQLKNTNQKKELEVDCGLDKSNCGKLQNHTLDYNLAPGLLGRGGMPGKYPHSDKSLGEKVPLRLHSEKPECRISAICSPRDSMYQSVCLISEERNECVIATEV
T4 sequence (D3ZHH1 28-530): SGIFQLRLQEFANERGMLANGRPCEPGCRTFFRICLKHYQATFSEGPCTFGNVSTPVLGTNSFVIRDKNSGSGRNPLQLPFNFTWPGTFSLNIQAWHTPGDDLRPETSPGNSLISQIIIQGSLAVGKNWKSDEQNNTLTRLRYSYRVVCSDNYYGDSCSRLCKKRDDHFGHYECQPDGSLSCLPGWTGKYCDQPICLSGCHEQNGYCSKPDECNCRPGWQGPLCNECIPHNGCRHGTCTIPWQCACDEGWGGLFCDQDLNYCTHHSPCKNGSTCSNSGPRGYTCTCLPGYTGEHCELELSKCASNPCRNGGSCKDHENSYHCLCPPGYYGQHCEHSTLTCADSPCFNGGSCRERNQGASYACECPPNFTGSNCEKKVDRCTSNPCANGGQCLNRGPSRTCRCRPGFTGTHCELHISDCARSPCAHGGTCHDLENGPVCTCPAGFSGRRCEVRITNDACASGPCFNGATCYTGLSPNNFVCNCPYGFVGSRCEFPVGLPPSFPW
T5 sequence (Q9NR61 27-685 limits assumed): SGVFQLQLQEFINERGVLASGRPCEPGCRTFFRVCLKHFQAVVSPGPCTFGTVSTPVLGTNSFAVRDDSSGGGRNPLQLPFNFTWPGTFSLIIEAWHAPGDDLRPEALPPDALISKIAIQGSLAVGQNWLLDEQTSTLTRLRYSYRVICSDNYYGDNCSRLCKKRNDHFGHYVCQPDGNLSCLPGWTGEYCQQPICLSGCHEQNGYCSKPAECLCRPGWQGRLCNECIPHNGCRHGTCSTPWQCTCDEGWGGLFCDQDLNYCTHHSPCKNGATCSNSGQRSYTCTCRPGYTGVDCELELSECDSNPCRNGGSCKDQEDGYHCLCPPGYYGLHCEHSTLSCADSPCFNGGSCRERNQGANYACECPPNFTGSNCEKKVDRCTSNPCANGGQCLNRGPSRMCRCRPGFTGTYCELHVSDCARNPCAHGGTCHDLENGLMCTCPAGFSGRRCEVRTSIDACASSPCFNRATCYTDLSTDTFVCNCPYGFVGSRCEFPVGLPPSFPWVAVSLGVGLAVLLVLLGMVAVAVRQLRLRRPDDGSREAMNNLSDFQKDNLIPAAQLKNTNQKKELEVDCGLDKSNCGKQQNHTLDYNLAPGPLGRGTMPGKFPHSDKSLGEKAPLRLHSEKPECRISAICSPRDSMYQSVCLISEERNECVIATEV

B1: h1A11.A6 (antibody, V domains shown)
VH: EVQLVESGGGLVQPGGSLRLSCAASGFTFRHFPMAWVRQAPGKGLEWVATISSSDAWPSYRDSVKGRFTISRDNAKNSLYLQMNSLRAEDTAVYYCSRGYYNSPFAYWGQGTLVTVSS
VL: DIQMTQSPSSLSASVGDRVTITCRASEDIYSNLAWYQQKPGKAPKLLIYDTNNLADGVPSRFSGSGSGTDFTLTISSLQPEDFATYYCQQYNNYPPTFGQGTKLEIK
notes: also called h1A11.A6 VH / h1A11VL.1
Broadly, the Kd is the equilibrium constant for the complex coming apart. Usually koff stands for a measure of how fast the partners let go of each other. The kon is the rate constant with which the complex forms. For orientation: EC50 means the concentration giving half of the maximal effect. Consider B1, for which the Kd in experiment [1] turned out to be 36 pM; in experiment [2], 120 pM; in experiment [3], 160 pM; in experiment [4] it was 6000 pM. For the same molecule, the koff turned out to be 6.62e-06 s⁻¹ in experiment [1], 2.1e-05 s⁻¹ in experiment [2], 3.12e-05 s⁻¹ in experiment [3] and 0.000772 s⁻¹ in experiment [4]. The kon in experiment [1] is 182000 M⁻¹ s⁻¹; in experiment [2], 171000 M⁻¹ s⁻¹; in experiment [3], 198000 M⁻¹ s⁻¹; in experiment [4], 129000 M⁻¹ s⁻¹. The “Inhibition of Notch Activation via DLL4 cells, Notch reporter assay” value (“Inhibition” for short) in experiment [5] was found to be 0.746 nM; with mouse DLL4 on cells [6] it was 1.17 nM. The EC50 in experiment [7] is 2230 pM; with mouse DLL4 on cells [8], 636 pM.

B2: h1A11.C6 (antibody, V domains shown)
VH: EVQLVESGGGLVQPGGSLRLSCAASGFTFRNFPMAWVRQAPGKGLEWVATISSSDGWPTYRDSVKGRFTISRDNAKSSLYLQMNSLRAEDTAVYYCSRGYYNSPFAYWGQGTLVTVSS
VL: DIQMTQSPSSLSASVGDRVTITCRASEDIYSNLAWYQQKPGKAPKLLIYDTNNLADGVPSRFSGSGSGTDFTLTISSLQPEDFATYYCQQYNNYPPTFGQGTKLEIK
notes: also called h1A11.C6 VH / h1A11VL.1
For B2, the Kd was 40 pM in experiment [1], 180 pM in experiment [2], 120 pM in experiment [3] and 18000 pM in experiment [4]. Further, the koff in experiment [1] was determined as 7.18e-06 s⁻¹; in experiment [2], 3.12e-05 s⁻¹; in experiment [3] it was 2.34e-05 s⁻¹; in experiment [4], 0.00305 s⁻¹. The kon is 178000 M⁻¹ s⁻¹ in experiment [1], 171000 M⁻¹ s⁻¹ in experiment [2], 203000 M⁻¹ s⁻¹ in experiment [3] and 169000 M⁻¹ s⁻¹ in experiment [4]. Also, the figures for the “Inhibition” value (in experiment [5]; with mouse DLL4 on cells [6]) were 0.894 nM and 1.19 nM, respectively. Further, the EC50 in experiment [7] amounted to 2450 pM; with mouse DLL4 on cells [8], 517 pM.

B3: h1A11.G3 (antibody, V domains shown)
VH: EVQLVESGGGLVQPGGSLRLSCAASGFTFRYFPMSWVRQAPGKGLEWVASISGSDGWASYRDSVKGRFTISRDNAKNSLYLQMNSLRAEDTAVYYCARGYYNSPFAYWGQGTLVTVSS
VL: DIQMTQSPSSLSASVGDRVTITCRASQEIYRNLAWYQQKPGKSPKLLIFDTSVLADGVPSRFSGSGSGTDSTLTISSLQPEDFATYYCQQYTYYPPTFGQGTKLEIK
notes: also called h1A11.G3 VH / h1A11.E12 VL
With B3, the Kd in experiment [1] worked out at 87 pM; in experiment [2], 170 pM; in experiment [3], 350 pM; in experiment [4] it was 8600 pM. Besides, the koff in experiment [1] worked out at 9.39e-06 s⁻¹; in experiment [2], 1.73e-05 s⁻¹; in experiment [3] it was 4.04e-05 s⁻¹; in experiment [4] it was 0.00101 s⁻¹. Further, the on-rate constant (kon) in experiment [1] was 109000 M⁻¹ s⁻¹; in experiment [2], 99000 M⁻¹ s⁻¹; in experiment [3] it was 117000 M⁻¹ s⁻¹; in experiment [4], 118000 M⁻¹ s⁻¹. The “Inhibition” value came out at 1.84 nM in experiment [5] and 2.35 nM with mouse DLL4 on cells [6]. Besides, the figures for the EC50 (in experiment [7]; with mouse DLL4 on cells [8]) were 3590 pM and 1400 pM, respectively.

B4: h1A11.A2 (antibody, V domains shown)
VH: EVQLVESGGGLVQPGGSLRLSCAASGFTFSNFPMAWVRQAPGKGLEWVATISSSDGTTYYRDSVKGRFTISRDNAKNSLYLQMNSLRAEDTAVYYCARGYYNSPFAYWGQGTLVTVSS
VL: DIQMTQSPSSLSASVGDRVTITCRASQDIYINLAWYQQKPGKSPKLLIFDTNDLADGVPSRFSGSGSGTDFTLTISSLQPEDFATYYCQQYDYVPPTFGQGTKLEIK
notes: also called h1A11VH.1 / h1A11.A2 VL
On to B4, for which the Kd in experiment [1] was found to be 3000 pM; in experiment [2] it was 3900 pM; in experiment [3] it was 5000 pM. The koff in experiment [1] turned out to be 0.000421 s⁻¹; in experiment [2], 0.000527 s⁻¹; in experiment [3], 0.000904 s⁻¹. Moreover, the kon in experiment [1] was determined as 142000 M⁻¹ s⁻¹; in experiment [2], 134000 M⁻¹ s⁻¹; in experiment [3] it was 181000 M⁻¹ s⁻¹. Further, in experiment [4], the binding result is “no binding”. The “Inhibition” value amounted to 3.68 nM in experiment [5] and 0.854 nM with mouse DLL4 on cells [6]. Further, the EC50 in experiment [7] is 2380 pM; in the experiment with mouse DLL4 on cells [8], 634 pM.

B5: h1A11.B4 (antibody, V domains shown)
VH: EVQLVESGGGLVQPGGSLRLSCAASGFTFSNFPMAWVRQAPGKGLEWVATISSSDGTTYYRDSVKGRFTISRDNAKNSLYLQMNSLRAEDTAVYYCARGYYNSPFAYWGQGTLVTVSS
VL: DIQMTQSPSSLSASVGDRVTITCRASQDIYYNLAWYQQKPGKAPKLLIFDTNILADGVPSRFSGSGSGTDFTLTISSLQPEDFATYFCQQYDYVPPTFGQGTKLEIK
notes: also called h1A11VH.1 / h1A11.B4 VL
Consider B5, for which the Kd in experiment [1] was determined as 5200 pM; in experiment [2] it was 6900 pM; in experiment [3], 5200 pM. The koff in experiment [1] worked out at 0.000823 s⁻¹; in experiment [2] it was 0.00099 s⁻¹; in experiment [3] it was 0.0025 s⁻¹. In addition, the values for the kon in experiment [1], in experiment [2] and in experiment [3] were 157000 M⁻¹ s⁻¹, 143000 M⁻¹ s⁻¹ and 479000 M⁻¹ s⁻¹, respectively. The binding result in experiment [4] was “no binding”. Further, the “Inhibition” value came to 3.28 nM in experiment [5] and 1.08 nM in the experiment with mouse DLL4 on cells [6]. Also, the results for the EC50 (in experiment [7]; with mouse DLL4 on cells [8]) were 2140 pM and 665 pM, respectively.

B6: h1A11.F5 (antibody, V domains shown)
VH: EVQLVESGGGLVQPGGSLRLSCAASGFTFRHFPMAWVRQAPGKGLEWVATISSSDAWPSYRDSVKGRFTISRDNAKNSLYLQMNSLRAEDTAVYYCARGYYNSPFAYWGQGTLVTVSS
VL: DIQMTQSPSSLSASVGDRVTITCRASQEIYRNLAWYQQKPGKSPKLLIFDTSVLADGVPSRFSGSGSGTDSTLTISSLQPEDFATYYCQQYTYYPPTFGQGTKLEIK
notes: also called h1A11.F5 VH / h1A11.E12 VL
B6: the Kd amounted to 75 pM in experiment [1], 170 pM in experiment [2], 280 pM in experiment [3] and 5800 pM in experiment [4]. The koff stood at 9.82e-06 s⁻¹ in experiment [1], 2e-05 s⁻¹ in experiment [2], 3.97e-05 s⁻¹ in experiment [3] and 0.000679 s⁻¹ in experiment [4]. For the same molecule, the kon in experiment [1] came out at 131000 M⁻¹ s⁻¹; in experiment [2] it was 118000 M⁻¹ s⁻¹; in experiment [3], 143000 M⁻¹ s⁻¹; in experiment [4] it was 116000 M⁻¹ s⁻¹. Moreover, the “Inhibition” value in experiment [5] worked out at 0.484 nM; in the experiment with mouse DLL4 on cells [6], 0.649 nM. Also, the 50% effective concentration (EC50) in experiment [7] amounted to 1170 pM; with mouse DLL4 on cells [8] it was 460 pM.
